Experimental data from article PMC8278493, “Structure of the TELO2-TTI1-TTI2 complex and its function in TOR recruitment to the R2TP chaperone” (Cell Reports, 2021).

B2: S. cerevisiae Rvb1p-Rvb2p complex (complex)
chain 1: MVAISEVKENPGVNSSNSGAVTRTAAHTHIKGLGLDESGVAKRVEGGFVGQIEAREACGVIVDLIKAKKMSGRAILLAGGPSTGKTALALAISQELGPKVPFCPLVGSELYSVEVKKTETLMENFRRAIGLRIKETKEVYEGEVTELTPEDAENPLGGYGKTISHVIVGLKSAKGTKTLRLDPTIYESIQREKVSIGDVIYIEANTGAVKRVGRSDAYATEFDLETEEYVPLPKGEVHKKKEIVQDVTLHDLDVANARPQGGQDVISMMGQLLKPKKTEITEKLRQEVNKVVAKYIDQGVAELIPGVLFIDEVNMLDIEIFTYLNKALESNIAPVVVLASNRGMTTVRGTEDVISPHGVPPDLIDRLLIVRTLPYDKDEIRTIIERRATVERLQVESSALDLLATMGTETSLRYALQLLAPCGILAQTSNRKEIVVNDVNEAKLLFLDAKRSTKILETSANYL
chain 2: MSIQTSDPNETSDLKSLSLIAAHSHITGLGLDENLQPRPTSEGMVGQLQARRAAGVILKMVQNGTIAGRAVLVAGPPSTGKTALAMGVSQSLGKDVPFTAIAGSEIFSLELSKTEALTQAFRKSIGIKIKEETELIEGEVVEIQIDRSITGGHKQGKLTIKTTDMETIYELGNKMIDGLTKEKVLAGDVISIDKASGKITKLGRSFARSRDYDAMGADTRFVQCPEGELQKRKTVVHTVSLHEIDVINSRTQGFLALFTGDTGEIRSEVRDQINTKVAEWKEEGKAEIVPGVLFIDEVHMLDIECFSFINRALEDEFAPIVMMATNRGVSKTRGTNYKSPHGLPLDLLDRSIIITTKSYNEQEIKTILSIRAQEEEVELSSDALDLLTKTGVETSLRYSSNLISVAQQIAMKRKNNTVEVEDVKRAYLLFLDSARSVKYVQENESQYIDDQGNVQISIAKSADPDAMDTTE
notes: Rvb1p, Saccharomyces cerevisiae; Rvb2p, Saccharomyces cerevisiae; also called yR2; R2; source: expressed and purified as previously described (Rivera-Calzada et al., 2017); copies: 3 + 3

Legend:
Details in all cases: both partners purified
[1] = target: T1, S. cerevisiae Tel2p-Tti1p-Tti2p complex (S. cerevisiae, UniProt P53038 1-688; P36097 1-1038; P47168 1-421); test: pull-down; strep beads hold the tandem strep-tag on Tah1p in yeast TP or R2TP; 20 mM HEPES pH 7.85, 140 mM NaCl, 0.5 mM TCEP, 0.03% CHAPS; 45 min at 4°C; Coomassie-stained SDS-PAGE
T1 construct: Tel2p, Saccharomyces cerevisiae; Tti1p, Saccharomyces cerevisiae; Tti2p, Saccharomyces cerevisiae; Purified from insect cells to ensure post-translational modifications on Tel2p; The methods say in general that the GST-tag was cleaved; also called yTTT; yeast TTT; source: Sf9, co-infected with Tti1p-Tti2p and Tel2p viruses, purified; copies: + +
T1 sequence (P53038 whole entry, chain 1 of 3): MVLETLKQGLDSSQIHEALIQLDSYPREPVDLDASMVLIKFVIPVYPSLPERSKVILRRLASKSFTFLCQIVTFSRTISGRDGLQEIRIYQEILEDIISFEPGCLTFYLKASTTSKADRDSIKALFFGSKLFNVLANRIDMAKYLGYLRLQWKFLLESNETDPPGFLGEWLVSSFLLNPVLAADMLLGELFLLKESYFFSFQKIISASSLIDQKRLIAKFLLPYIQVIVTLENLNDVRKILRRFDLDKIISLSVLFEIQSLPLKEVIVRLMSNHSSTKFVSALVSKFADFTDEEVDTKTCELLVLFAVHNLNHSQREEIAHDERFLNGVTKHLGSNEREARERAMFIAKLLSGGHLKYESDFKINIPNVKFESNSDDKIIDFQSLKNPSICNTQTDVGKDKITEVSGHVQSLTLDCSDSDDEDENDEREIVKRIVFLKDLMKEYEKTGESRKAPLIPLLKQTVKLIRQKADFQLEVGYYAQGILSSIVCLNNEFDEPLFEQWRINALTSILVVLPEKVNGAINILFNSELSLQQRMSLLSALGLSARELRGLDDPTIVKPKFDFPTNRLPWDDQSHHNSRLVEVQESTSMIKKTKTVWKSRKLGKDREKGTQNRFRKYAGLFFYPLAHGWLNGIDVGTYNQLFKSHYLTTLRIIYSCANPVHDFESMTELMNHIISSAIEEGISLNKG
T1 sequence (P36097 whole entry, chain 2 of 3): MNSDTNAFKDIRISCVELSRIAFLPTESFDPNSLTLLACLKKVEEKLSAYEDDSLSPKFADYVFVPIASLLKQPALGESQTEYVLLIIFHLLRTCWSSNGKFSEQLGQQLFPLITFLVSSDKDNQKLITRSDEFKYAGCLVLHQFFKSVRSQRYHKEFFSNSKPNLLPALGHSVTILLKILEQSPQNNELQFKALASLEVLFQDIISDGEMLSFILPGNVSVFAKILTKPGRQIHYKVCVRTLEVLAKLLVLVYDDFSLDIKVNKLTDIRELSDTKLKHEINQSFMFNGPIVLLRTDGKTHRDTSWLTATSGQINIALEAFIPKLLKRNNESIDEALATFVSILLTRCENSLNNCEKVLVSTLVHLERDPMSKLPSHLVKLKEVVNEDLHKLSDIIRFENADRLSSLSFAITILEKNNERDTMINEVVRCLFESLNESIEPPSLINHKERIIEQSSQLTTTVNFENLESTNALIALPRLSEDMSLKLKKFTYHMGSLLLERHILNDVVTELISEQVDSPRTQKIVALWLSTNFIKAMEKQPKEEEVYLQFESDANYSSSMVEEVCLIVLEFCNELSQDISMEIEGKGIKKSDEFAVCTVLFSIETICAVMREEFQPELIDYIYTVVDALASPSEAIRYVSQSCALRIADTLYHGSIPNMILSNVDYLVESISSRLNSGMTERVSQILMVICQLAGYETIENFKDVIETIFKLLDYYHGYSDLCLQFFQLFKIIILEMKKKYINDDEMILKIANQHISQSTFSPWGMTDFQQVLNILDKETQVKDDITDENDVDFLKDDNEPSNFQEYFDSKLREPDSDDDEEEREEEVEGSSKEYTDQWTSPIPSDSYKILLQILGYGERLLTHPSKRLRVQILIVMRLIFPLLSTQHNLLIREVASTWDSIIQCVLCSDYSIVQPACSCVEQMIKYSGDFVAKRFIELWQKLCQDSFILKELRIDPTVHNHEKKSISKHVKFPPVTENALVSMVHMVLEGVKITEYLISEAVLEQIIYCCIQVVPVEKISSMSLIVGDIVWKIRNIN
T1 sequence (P47168 whole entry, chain 3 of 3): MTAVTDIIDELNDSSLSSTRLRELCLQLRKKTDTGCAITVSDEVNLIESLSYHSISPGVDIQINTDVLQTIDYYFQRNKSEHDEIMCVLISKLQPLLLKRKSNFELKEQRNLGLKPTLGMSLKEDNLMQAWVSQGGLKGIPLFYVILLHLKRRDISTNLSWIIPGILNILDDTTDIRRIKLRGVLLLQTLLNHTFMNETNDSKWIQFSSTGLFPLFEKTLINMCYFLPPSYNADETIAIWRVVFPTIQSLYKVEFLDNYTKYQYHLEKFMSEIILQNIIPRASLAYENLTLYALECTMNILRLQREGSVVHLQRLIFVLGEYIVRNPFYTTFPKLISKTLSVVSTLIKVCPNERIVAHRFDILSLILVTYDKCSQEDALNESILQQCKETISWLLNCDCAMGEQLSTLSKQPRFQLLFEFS

[2] = target: B2; test: as above
[3] = target: T2, S. cerevisiae TTT complex in which Tti1p carries a C-terminal FLAG-tag (S. cerevisiae, UniProt P53038 1-688; P36097 1-1038; P47168 1-421); test: co-IP; anti-FLAG beads hold yeast TTT by FLAG-tagged Tti1p; purified KmTOR-KmLst8, with or without yeast R2; Coomassie-stained SDS-PAGE
T2 construct: Tel2p, Saccharomyces cerevisiae; Tti1p, Saccharomyces cerevisiae; Tti2p, Saccharomyces cerevisiae; The cloning of the FLAG-tagged Tti1p is not described in the methods; also called FLAG-tagged TTT; FLAG-tagged Tti1p; source: Sf9, purified; not shown: FLAG, C-terminal, kept; copies: + +
T2 sequence (P53038 whole entry, chain 1 of 3): as the sequence (P53038 whole entry, chain 1 of 3) above
T2 sequence (P36097 whole entry, chain 2 of 3): as the sequence (P36097 whole entry, chain 2 of 3) above
T2 sequence (P47168 whole entry, chain 3 of 3): as the sequence (P47168 whole entry, chain 3 of 3) above

[4] = target: T3, human TTI1, full length, untagged (human, UniProt O43156 1-1089); test: cryo-EM structure; human R2 saturated with an excess of TTT; symmetry expansion and multi-body refinement; ADP in all six sites
T3 construct: TTI1, human, 1089 residues; In PDB 7OLE TTI1 is modelled as poly-alanine helices only; also called full-length untagged TTI1; source: Sf9, co-expressed with GST-TTI2 constructs (in lysate); co-expressed with TTI2 and TELO2 and purified within TTT
T3 sequence (O43156 whole entry): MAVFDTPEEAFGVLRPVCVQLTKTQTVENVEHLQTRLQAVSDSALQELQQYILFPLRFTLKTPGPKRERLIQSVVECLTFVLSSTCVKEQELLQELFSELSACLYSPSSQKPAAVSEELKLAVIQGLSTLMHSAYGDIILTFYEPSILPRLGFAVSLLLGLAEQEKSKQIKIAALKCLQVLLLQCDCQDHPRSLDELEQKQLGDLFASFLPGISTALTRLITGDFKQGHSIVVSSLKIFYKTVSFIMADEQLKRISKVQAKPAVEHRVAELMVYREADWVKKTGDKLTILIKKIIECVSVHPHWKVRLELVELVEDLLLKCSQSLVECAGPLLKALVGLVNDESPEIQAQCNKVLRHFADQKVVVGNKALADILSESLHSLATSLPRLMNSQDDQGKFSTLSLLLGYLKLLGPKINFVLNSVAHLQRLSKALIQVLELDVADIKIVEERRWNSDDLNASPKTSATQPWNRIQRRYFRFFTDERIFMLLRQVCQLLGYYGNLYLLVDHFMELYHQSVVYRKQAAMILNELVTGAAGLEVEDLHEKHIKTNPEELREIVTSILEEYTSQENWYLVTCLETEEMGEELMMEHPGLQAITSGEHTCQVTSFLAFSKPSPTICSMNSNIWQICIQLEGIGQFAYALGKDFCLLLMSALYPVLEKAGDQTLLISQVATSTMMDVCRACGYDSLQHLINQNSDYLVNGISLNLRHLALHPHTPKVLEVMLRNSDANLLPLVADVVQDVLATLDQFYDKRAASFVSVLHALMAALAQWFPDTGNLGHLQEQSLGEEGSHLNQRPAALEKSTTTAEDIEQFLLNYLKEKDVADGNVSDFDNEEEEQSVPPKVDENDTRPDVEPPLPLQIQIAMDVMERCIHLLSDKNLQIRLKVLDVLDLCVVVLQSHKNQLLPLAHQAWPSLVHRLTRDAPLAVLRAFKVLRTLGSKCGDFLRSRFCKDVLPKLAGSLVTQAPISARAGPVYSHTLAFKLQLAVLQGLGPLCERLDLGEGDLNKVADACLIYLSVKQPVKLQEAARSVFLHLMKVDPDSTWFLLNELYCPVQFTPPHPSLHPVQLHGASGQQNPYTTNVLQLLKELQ

[5] = target: T4, human TTI1-TTI2 subcomplex (human, UniProt O43156 1-1089; Q6NXR4 1-508); test: pull-down; GST beads hold the GST-tag on TELO2 (5 μM); 2 μM RUVBL1/2, RUVBL1/2ΔDII or isolated DII domains; 20 mM HEPES pH 7.85, 140 mM NaCl, 0.001% Tween 20; 45 min at 4°C; Coomassie-stained SDS-PAGE
T4 construct: TTI1, human, 1089 residues; TTI2, human, 508 residues; Cloned as TTI1 and GST-TTI2; the methods name both a cleavage of the GST-tag and GST-TTI2-TTI1 as a sample of the pull-downs; also called T2; source: Sf9, co-expressed, purified
T4 sequence (O43156 whole entry, the tested form may be a part, one chain of several): as the sequence (O43156 whole entry) above

B1: S. cerevisiae Tah1p-Pih1p complex with a tandem strep-tag on the N terminus of Tah1p (complex)
chain 1: MSQFEKQKEQGNSLFKQGLYREAVHCYDQLITAQPQNPVGYSNKAMALIKLGEYTQAIQMCQQGLRYTSTAEHVAIRSKLQYRLELAQGAVGSVQIPVVEVDELPEGYDRS
chain 2: MADFLLRPIKQRHRNEDKYVSVDAADGSVSKIEPIADFVIKTKLLSANGPEKLQDGRKVFINVCHSPLVPKPEVDFNARIVFPLIIQNEWEIPIITSCYRMDHDKKGQECYVWDCCINSDCSRWICDDIQLREILVEWCLESCEIRDSVVLCRDRIAFPKMKKKGAELPALEVLNDELHQDYKAKMHKIIEEEAGDPMSILRGRNDDGDDNNDPDDGTLPPLFPIENKISGAKIEEIDKNEIAHRNLKQAPAPAPAPHEQQEDVPEYEVKMKRFKGAAYKLRILIENKAPNSKPDRFSPSYNFAENILYINGKLSIPLPRDIVVNAADIKIFHIRKERTLYIYI
notes: Tah1p, Saccharomyces cerevisiae; Pih1p, Saccharomyces cerevisiae; also called yTP; TP; source: expressed and purified as previously described (Rivera-Calzada et al., 2017); not shown: tandem Strep, N-terminal, kept
- binding result [1]: binds
- binding result [2]: binds

Binder: B2
- binding result [3]: binds

B3: human TELO2 (as in the purified TTT complex) (natural protein, UniProt Q9Y4R8 1-837, looked up)
chain: MEPAPSEVRLAVREAIHALSSSEDGGHIFCTLESLKRYLGEMEPPALPREKEEFASAHFSPVLRCLASRLSPAWLELLPHGRLEELWASFFLEGPADQAFLVLMETIEGAAGPSFRLMKMARLLARFLREGRLAVLMEAQCRQQTQPGFILLRETLLGKVVALPDHLGNRLQQENLAEFFPQNYFRLLGEEVVRVLQAVVDSLQGGLDSSVSFVSQVLGKACVHGRQQEILGVLVPRLAALTQGSYLHQRVCWRLVEQVPDRAMEAVLTGLVEAALGPEVLSRLLGNLVVKNKKAQFVMTQKLLFLQSRLTTPMLQSLLGHLAMDSQRRPLLLQVLKELLETWGSSSAIRHTPLPQQRHVSKAVLICLAQLGEPELRDSRDELLASMMAGVKCRLDSSLPPVRRLGMIVAEVVSARIHPEGPPLKFQYEEDELSLELLALASPQPAGDGASEAGTSLVPATAEPPAETPAEIVDGGVPQAQLAGSDSDLDSDDEFVPYDMSGDRELKSSKAPAYVRDCVEALTTSEDIERWEAALRALEGLVYRSPTATREVSVELAKVLLHLEEKTCVVGFAGLRQRALVAVTVTDPAPVADYLTSQFYALNYSLRQRMDILDVLTLAAQELSRPGCLGRTPQPGSPSPNTPCLPEAAVSQPGSAVASDWRVVVEERIRSKTQRLSKGGPRQGPAGSPSRFNSVAGHFFFPLLQRFDRPLVTFDLLGEDQLVLGRLAHTLGALMCLAVNTTVAVAMGKALLEFVWALRFHIDAYVRQGLLSAVSSVLLSLPAARLLEDLMDELLEARSWLADVAEKDPDEDCRTLALRALLLLQRLKNRLLPPASP
notes: TELO2, human; Only the N-terminal domain (TELO2-N) is seen in the map; source: Sf9, purified within TTT; not shown: GST, N-terminal, cleaved
- binding result [4]: binds

B4: human GST-TELO2 (natural protein, UniProt Q9Y4R8 1-837, looked up)
chain: MEPAPSEVRLAVREAIHALSSSEDGGHIFCTLESLKRYLGEMEPPALPREKEEFASAHFSPVLRCLASRLSPAWLELLPHGRLEELWASFFLEGPADQAFLVLMETIEGAAGPSFRLMKMARLLARFLREGRLAVLMEAQCRQQTQPGFILLRETLLGKVVALPDHLGNRLQQENLAEFFPQNYFRLLGEEVVRVLQAVVDSLQGGLDSSVSFVSQVLGKACVHGRQQEILGVLVPRLAALTQGSYLHQRVCWRLVEQVPDRAMEAVLTGLVEAALGPEVLSRLLGNLVVKNKKAQFVMTQKLLFLQSRLTTPMLQSLLGHLAMDSQRRPLLLQVLKELLETWGSSSAIRHTPLPQQRHVSKAVLICLAQLGEPELRDSRDELLASMMAGVKCRLDSSLPPVRRLGMIVAEVVSARIHPEGPPLKFQYEEDELSLELLALASPQPAGDGASEAGTSLVPATAEPPAETPAEIVDGGVPQAQLAGSDSDLDSDDEFVPYDMSGDRELKSSKAPAYVRDCVEALTTSEDIERWEAALRALEGLVYRSPTATREVSVELAKVLLHLEEKTCVVGFAGLRQRALVAVTVTDPAPVADYLTSQFYALNYSLRQRMDILDVLTLAAQELSRPGCLGRTPQPGSPSPNTPCLPEAAVSQPGSAVASDWRVVVEERIRSKTQRLSKGGPRQGPAGSPSRFNSVAGHFFFPLLQRFDRPLVTFDLLGEDQLVLGRLAHTLGALMCLAVNTTVAVAMGKALLEFVWALRFHIDAYVRQGLLSAVSSVLLSLPAARLLEDLMDELLEARSWLADVAEKDPDEDCRTLALRALLLLQRLKNRLLPPASP
notes: TELO2, human; The tagged subunit of m4, as the bait with which TTI1-TTI2 is found; also called GST-TEL2; not shown: GST, N-terminal, kept
- binding result [5]: binds

B5: human TTI2 (as in the purified TTT complex) (natural protein, UniProt Q6NXR4 1-508, looked up)
chain: MELDSALEAPSQEDSNLSEELSHSAFGQAFSKILHCLARPEARRGNVKDAVLKDLGDLIEATEFDRLFEGTGARLRGMPETLGQVAKALEKYAAPSKEEEGGGDGHSEAAEKAAQVGLLFLKLLGKVETAKNSLVGPAWQTGLHHLAGPVYIFAITHSLEQPWTTPRSREVAREVLTSLLQVTECGSVAGFLHGENEDEKGRLSVILGLLKPDLYKESWKNNPAIKHVFSWTLQQVTRPWLSQHLERVLPASLVISDDYQTENKILGVHCLHHIVLNVPAADLLQYNRAQVLYHAISNHLYTPEHHLIQAVLLCLLDLFPILEKTLHWKGDGARPTTHCDEVLRLILTHMEPEHRLLLRRTYARNLPAFVNRLGILTVRHLKRLERVIIGYLEVYDGPEEEARLKILETLKLLMQHTWPRVSCRLVVLLKALLKLICDVARDPNLTPESVKSALLQEATDCLILLDRCSQGRVKGLLAKIPQSCEDRKVVNYIRKVQQVSEGAPYNGT
notes: TTI2, human, 508 residues; In PDB 7OLE TTI2 is modelled as poly-alanine helices only; source: Sf9, purified within TTT
- binding result [4]: binds
